B1: MMP1 (parent)
chain: YTPDLPRADVDHAIEKAFQLWSNV

Variants of: B1
Test: protein stability index of a GFP-peptide fusion (GPS, HEK-293T) (PSI 1-6); higher = more stable
Conditions: c terminus: a fixed tail appended
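Further: lentivirally expressed fusions sorted by FACS into six bins by GFP to DsRed ratio, PSI derived from sequencing read proportions per bin multiplied by bin number.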

Compared with YTPDLPRAPVDHAIEKAFQLWSNV [D9P], YTPDLPRALVDHAIEKAFQLWSNV [D9L] is lower in protein stability index: 1.54 for the first, 1.3 for the second.

First: YTPDLPRAFVDHAIEKAFQLWSNV [D9F]
Second: YTPDLPRAHVDHAIEKAFQLWSNV [D9H]
The protein stability index of the first is lower: 1.57 for the first, 2.51 for the second.

Compared with YTPDLPRAIVDHAIEKAFQLWSNV [D9I], YTPDLPRAKVDHAIEKAFQLWSNV [D9K] is higher in protein stability index: 1.78 for the first, 2.44 for the second.

First: YTPDLPRANVDHAIEKAFQLWSNV [D9N]
Second: YTPDLPRARVDHAIEKAFQLWSNV [D9R]
The protein stability index of the first is higher: 1.59 for the first, 1.16 for the second.

First: YTPDLPRAGVDHAIEKAFQLWSNV [D9G]
Second: YTPDLPRATVDHAIEKAFQLWSNV [D9T]
The protein stability index of the first is higher: 2.49 for the first, 1.82 for the second.

Compared with YTPDLPRAYVDHAIEKAFQLWSNV [D9Y], YTPDLPRAQVDHAIEKAFQLWSNV [D9Q] is higher in protein stability index: 2.35 for the first, 2.5 for the second.

Going from YTPDLPRASVDHAIEKAFQLWSNV [D9S] to YTPDLPRAVVDHAIEKAFQLWSNV [D9V], the protein stability index rises from 2.55 to 2.62.

Going from YTPDLPRAMVDHAIEKAFQLWSNV [D9M] to YTPDLPRAWVDHAIEKAFQLWSNV [D9W], the protein stability index falls from 2.31 to 1.51.

Compared with YTPDLPRADVDHKIEKAFQLWSNV [A13K], YTPDLPRADVDHMIEKAFQLWSNV [A13M] is higher in protein stability index: 2.1 for the first, 2.61 for the second.

First: YTPDLPRADVDHEIEKAFQLWSNV [A13E]
Second: YTPDLPRADVDHFIEKAFQLWSNV [A13F]
The protein stability index of the first is higher: 2.19 for the first, 1.79 for the second.

Compared with YTPDLPRADVDHYIEKAFQLWSNV [A13Y], YTPDLPRADVDHDIEKAFQLWSNV [A13D] is lower in protein stability index: 1.95 for the first, 1.71 for the second.

Going from YTPDLPRADVDHHIEKAFQLWSNV [A13H] to YTPDLPRADVDHWIEKAFQLWSNV [A13W], the protein stability index falls from 2.27 to 2.06.

First: YTPDLPRADVDHCIEKAFQLWSNV [A13C]
Second: YTPDLPRADVDHRIEKAFQLWSNV [A13R]
The protein stability index of the first is lower: 1.93 for the first, 2.08 for the second.

Going from YTPDLPRADVDHLIEKAFQLWSNV [A13L] to YTPDLPRADVDHGIEKAFQLWSNV [A13G], the protein stability index rises from 1.63 to 3.15.

Compared with YTPDLPRADVDHPIEKAFQLWSNV [A13P], YTPDLPRADVDHIIEKAFQLWSNV [A13I] is higher in protein stability index: 1.58 for the first, 2.27 for the second.

First: YTPDLPRADVDHQIEKAFQLWSNV [A13Q]
Second: YTPDLPRADVDHVIEKAFQLWSNV [A13V]
The protein stability index of the first is lower: 2.03 for the first, 2.79 for the second.

Going from YTPDLPRADVDHTIEKAFQLWSNV [A13T] to YTPDLPRADVDHNIEKAFQLWSNV [A13N], the protein stability index falls from 3 to 2.11.

Compared with YTPDLPRADVDHSIEKAFQLWSNV [A13S], YTPDLPRADVCHAIEKAFQLWSNV [D11C] is higher in protein stability index: 1.89 for the first, 2.17 for the second.

Going from YTPDLPRADVVHAIEKAFQLWSNV [D11V] to YTPDLPRADVFHAIEKAFQLWSNV [D11F], the protein stability index rises from 1.59 to 2.12.

Going from YTPDLPRADVAHAIEKAFQLWSNV [D11A] to YTPDLPRADVNHAIEKAFQLWSNV [D11N], the protein stability index falls from 2.08 to 1.63.

Going from YTPDLPRADVHHAIEKAFQLWSNV [D11H] to YTPDLPRADVYHAIEKAFQLWSNV [D11Y], the protein stability index falls from 2.07 to 1.7.

First: YTPDLPRADVPHAIEKAFQLWSNV [D11P]
Second: YTPDLPRADVQHAIEKAFQLWSNV [D11Q]
The protein stability index of the first is higher: 3.09 for the first, 1.83 for the second.

Compared with YTPDLPRADVEHAIEKAFQLWSNV [D11E], YTPDLPRADVSHAIEKAFQLWSNV [D11S] is higher in protein stability index: 1.4 for the first, 1.96 for the second.

Going from YTPDLPRADVRHAIEKAFQLWSNV [D11R] to YTPDLPRADVKHAIEKAFQLWSNV [D11K], the protein stability index falls from 2.69 to 2.21.

Going from YTPDLPRADVGHAIEKAFQLWSNV [D11G] to YTPDLPRADVWHAIEKAFQLWSNV [D11W], the protein stability index falls from 3.41 to 1.73.

Going from YTPDLPRADVTHAIEKAFQLWSNV [D11T] to YTPDLPRADVLHAIEKAFQLWSNV [D11L], the protein stability index falls from 2.62 to 1.96.

Compared with YTPDLPRADVMHAIEKAFQLWSNV [D11M], YTPDLPRADVIHAIEKAFQLWSNV [D11I] is lower in protein stability index: 2.12 for the first, 1.94 for the second.

Compared with YTPDLPRADYDHAIEKAFQLWSNV [V10Y], YTPDLPRADADHAIEKAFQLWSNV [V10A] is lower in protein stability index: 2.71 for the first, 2.06 for the second.

Compared with YTPDLPRADHDHAIEKAFQLWSNV [V10H], YTPDLPRADTDHAIEKAFQLWSNV [V10T] is higher in protein stability index: 1.58 for the first, 1.91 for the second.

First: YTPDLPRADNDHAIEKAFQLWSNV [V10N]
Second: YTPDLPRADLDHAIEKAFQLWSNV [V10L]
The protein stability index of the first is higher: 1.48 for the first, 1.27 for the second.

Going from YTPDLPRADDDHAIEKAFQLWSNV [V10D] to YTPDLPRADWDHAIEKAFQLWSNV [V10W], the protein stability index rises from 2.16 to 3.04.

Compared with YTPDLPRADFDHAIEKAFQLWSNV [V10F], YTPDLPRADRDHAIEKAFQLWSNV [V10R] is higher in protein stability index: 1.79 for the first, 2.55 for the second.

First: YTPDLPRADKDHAIEKAFQLWSNV [V10K]
Second: YTPDLPRADPDHAIEKAFQLWSNV [V10P]
The protein stability index of the first is higher: 2.44 for the first, 1.49 for the second.

YTPDLPRADEDHAIEKAFQLWSNV [V10E] and YTPDLPRADQDHAIEKAFQLWSNV [V10Q] are the same in protein stability index: 1.81 for the first, 1.81 for the second.

Compared with YTPDLPRADCDHAIEKAFQLWSNV [V10C], YTPDLPRADSDHAIEKAFQLWSNV [V10S] is lower in protein stability index: 2.1 for the first, 1.88 for the second.

Going from YTPDLPRADIDHAIEKAFQLWSNV [V10I] to YTPDLPRADGDHAIEKAFQLWSNV [V10G], the protein stability index rises from 1.76 to 1.96.

Going from YTPDLPRADMDHAIEKAFQLWSNV [V10M] to YTPDLPRADVDLAIEKAFQLWSNV [H12L], the protein stability index falls from 2.56 to 2.19.

First: YTPDLPRADVDCAIEKAFQLWSNV [H12C]
Second: YTPDLPRADVDIAIEKAFQLWSNV [H12I]
The protein stability index of the first is lower: 1.62 for the first, 2 for the second.

First: YTPDLPRADVDFAIEKAFQLWSNV [H12F]
Second: YTPDLPRADVDPAIEKAFQLWSNV [H12P]
The protein stability index of the first is lower: 1.7 for the first, 2.11 for the second.

Going from YTPDLPRADVDDAIEKAFQLWSNV [H12D] to YTPDLPRADVDYAIEKAFQLWSNV [H12Y], the protein stability index falls from 2.09 to 2.

Going from YTPDLPRADVDMAIEKAFQLWSNV [H12M] to YTPDLPRADVDKAIEKAFQLWSNV [H12K], the protein stability index rises from 1.63 to 1.79.

First: YTPDLPRADVDNAIEKAFQLWSNV [H12N]
Second: YTPDLPRADVDTAIEKAFQLWSNV [H12T]
The protein stability index of the first is higher: 1.92 for the first, 1.82 for the second.

Compared with YTPDLPRADVDGAIEKAFQLWSNV [H12G], YTPDLPRADVDWAIEKAFQLWSNV [H12W] is higher in protein stability index: 2.03 for the first, 2.21 for the second.

Compared with YTPDLPRADVDEAIEKAFQLWSNV [H12E], YTPDLPRADVDAAIEKAFQLWSNV [H12A] is higher in protein stability index: 2.04 for the first, 2.46 for the second.

First: YTPDLPRADVDQAIEKAFQLWSNV [H12Q]
Second: YTPDLPRADVDVAIEKAFQLWSNV [H12V]
The protein stability index of the first is lower: 1.69 for the first, 1.95 for the second.

First: YTPDLPRADVDSAIEKAFQLWSNV [H12S]
Second: YTPDLPRADVDRAIEKAFQLWSNV [H12R]
The protein stability index of the first is lower: 1.58 for the first, 1.64 for the second.

Going from YTPDLPRADVDHACEKAFQLWSNV [I14C] to YTPDLPRADVDHAAEKAFQLWSNV [I14A], the protein stability index falls from 2.1 to 1.68.

From the supplement of paper PMC10567573
